Reference: US20200262917A1 (Daiichi Sankyo, published 2020)

T1: human LAG-3 (full length, expressed on cells) (human, UniProt P18627 23-525)
T1 construct: also called CD223; hLAG-3
T1 sequence: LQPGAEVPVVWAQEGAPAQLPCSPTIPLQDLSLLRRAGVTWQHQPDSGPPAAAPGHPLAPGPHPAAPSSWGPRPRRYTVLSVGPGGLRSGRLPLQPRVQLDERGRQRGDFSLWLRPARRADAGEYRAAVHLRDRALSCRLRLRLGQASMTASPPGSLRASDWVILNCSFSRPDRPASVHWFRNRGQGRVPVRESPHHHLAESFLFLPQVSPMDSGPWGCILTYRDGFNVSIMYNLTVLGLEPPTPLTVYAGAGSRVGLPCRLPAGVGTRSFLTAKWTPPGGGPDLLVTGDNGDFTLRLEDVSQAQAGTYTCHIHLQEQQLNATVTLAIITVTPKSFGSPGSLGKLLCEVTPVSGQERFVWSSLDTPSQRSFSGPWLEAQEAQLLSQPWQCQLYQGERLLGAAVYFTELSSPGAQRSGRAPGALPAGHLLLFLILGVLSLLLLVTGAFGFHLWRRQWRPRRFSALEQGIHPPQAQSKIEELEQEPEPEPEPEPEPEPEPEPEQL

T2: LAG-3_D3D4-His: 3rd and 4th extracellular immunoglobulin-like domains (263-450) of human LAG-3 with … (UniProt P18627 263-450)
T2 chain: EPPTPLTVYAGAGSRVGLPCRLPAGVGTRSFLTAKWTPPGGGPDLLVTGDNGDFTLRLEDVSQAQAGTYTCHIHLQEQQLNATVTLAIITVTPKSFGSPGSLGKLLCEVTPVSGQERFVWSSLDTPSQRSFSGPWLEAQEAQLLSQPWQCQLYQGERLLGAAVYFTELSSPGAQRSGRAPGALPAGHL

T3: FLAG-D3D4: domain 3 and onwards (263-525) of human LAG-3 with N-terminal FLAG tag, on cells (human, UniProt P18627 263-525)
T3 construct: Expressed on HEK293T cells from pcDNA3.1; any leader before the FLAG tag is not described; also called construct containing domains 3 and 4
T3 sequence: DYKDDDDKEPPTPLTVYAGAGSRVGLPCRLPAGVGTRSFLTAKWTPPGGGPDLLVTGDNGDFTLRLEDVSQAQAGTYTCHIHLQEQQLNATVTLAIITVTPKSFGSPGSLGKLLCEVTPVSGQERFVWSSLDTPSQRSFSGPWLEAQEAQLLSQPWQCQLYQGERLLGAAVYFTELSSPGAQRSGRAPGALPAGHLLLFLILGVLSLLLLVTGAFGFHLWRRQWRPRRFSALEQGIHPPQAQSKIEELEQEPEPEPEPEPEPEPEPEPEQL

T4: FLAG-D4: domain 4 and onwards (353-525) of human LAG-3 with N-terminal FLAG tag, on cells (human, UniProt P18627 353-525)
T4 construct: Expressed on HEK293T cells from pcDNA3.1; any leader before the FLAG tag is not described; also called construct containing only domain 4
T4 sequence: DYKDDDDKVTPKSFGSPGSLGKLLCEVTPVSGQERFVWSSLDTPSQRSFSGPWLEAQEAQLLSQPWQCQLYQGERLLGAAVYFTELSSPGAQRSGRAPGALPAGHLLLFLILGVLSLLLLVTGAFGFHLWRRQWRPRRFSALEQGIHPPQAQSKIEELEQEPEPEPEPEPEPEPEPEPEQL


Tests used:
[1] = target: T1, human LAG-3 (full length, expressed on …); assay: flow cytometry on 293T-lacZ cells expressing human LAG-3
[2] = target: T2, LAG-3_D3D4-His: 3rd and 4th …; assay: SPR (Biacore T200)
[3] = target: T1, human LAG-3 (full length, expressed on …); assay: flow cytometry on PHA-activated human T cells (PHA blasts) expressing LAG-3
[4] = target: T3, FLAG-D3D4: domain 3 and onwards …; assay: flow cytometry on transfected HEK293T cells, antibody at 10 µg/mL
Procedure: (§1) It was further confirmed by flow cytometry that the antibody produced by the hybridomas determined to be positive by the Cell-ELISA in Example 1)-3 binds to PHA (phytohemagglutinin) activated human T cells (PHA blasts), a more physiologically relevant cell type expressing LAG-3. To human PBMCs stimulated with 2 μg/mL of PHA (manufactured by Sigma-Aldrich) for three days, was added a hybridoma culture supernatant for suspension, followed by reaction at 4° C. for 30 minutes. After washing with a FACS buffer (PBS, 0.1% BSA, and 0.1% sodium azide), a secondary antibody such as an Anti-Rat IgG PE conjugate (manufactured by Jackson ImmunoResearch Laboratories, Inc.) diluted 200-fold with a FACS buffer comprising a LIVE/DEAD Fixable Dead Cell Stain Kit-near-IR fluorescent reactive dye (manufactured by Invitrogen Corp.) was added thereto for suspension, followed by standing at 4° C. for 30 minutes. After washing with a FACS buffer, the cells were resuspended in PBS containing 1 to 2% paraformaldehyde, followed by detection using a flow cytometer (Cantoll: manufactured by Becton, Dickinson and Company or FC500: manufactured by Beckman Coulter Inc.). The data was analyzed using FlowJo (manufactured by Tree Star Inc). After removal of the LIVE/DEAD Fixable Dead Cell Stain Kit-near-IR fluorescent reactive dye-positive dead cells by gating, a histogram of the fluorescence intensity of the living cells was plotted.
(§2) Each expression plasmid (cloned into pcDNA3.1) of either domain 3 and onwards (263-525) or domain 4 and onwards (353-525) of human LAG-3 with a FLAG tag sequence ([…]) added to the N terminus was introduced into HEK293T cells using Lipofectamine 2000 (manufactured by Life Technologies Corp.), and the cells were cultured for 1 day and then recovered, to investigate the binding activity of the antibodies by flow cytometry according to the method described in Example 1)-4. […]

[5] = target: T4, FLAG-D4: domain 4 and onwards (353-525) …; assay: flow cytometry on transfected HEK293T cells
Procedure: as §1, §2

Binder | binding result [1] | Kd [2] [nM] | binding result [3] | binding result [4] | binding result [5]
humanized anti-human LAG-3 antibody hLA212_H3/L2 (antibody, human IgG1, kappa, V domains shown, Human IgG1/kappa; not in a low fucose form; also called humanized hLA212_H3/L2) VH: EVQLVESGGGLVQPGGSLRLSCAASGFTYRSYVMAWVRQAPGKGLEWVASISTGGGNTYYRDSVKGRFTISRDNAKNTLYLQMDSLRAEDTAVYYCAEDMSNSGYGLFDYWGQGTLVTVSS VL: DIQMTQSPSSLSASVGDRVTITCKAGQNVDNNIAWYQQKPGQSPKLLIYYASNRNTGVPSRFSGSGYGTDFTLTISSLQPEDFATYYCQRISNSPYTFGQGTKVEIKR | binds | 0.062 | – | – | –
humanized anti-human LAG-3 antibody hLA212_H2/L1 (antibody, human IgG1, kappa, V domains shown, Human IgG1/kappa; also called humanized hLA212_H2/L1) VH: EVQLVESGGGLVQPGGSLRLSCAASGFTYRSYVMAWVRQAPGKGLEWVGSISTGGGNTYYRDSVKGRFTISRDNAKNTLYLQMNSLRAEDTAVYYCAEDMSNSGYGLFDYWGQGTLVTVSS VL: DIQMTQSPSSLSASVGDRVTITCKAGQNVDNNIAWYQQKPGQAPKLLIYYASNRNTGVPSRFSGSGSGTDFTLTISSLQPEDFATYYCQRISNSPYTFGQGTKVEIKR | binds | 0.11 | – | – | –
humanized anti-human LAG-3 antibody hLA212_H2/L2 (antibody, human IgG1, kappa, V domains shown, Human IgG1/kappa; also called humanized hLA212_H2/L2) VH: EVQLVESGGGLVQPGGSLRLSCAASGFTYRSYVMAWVRQAPGKGLEWVGSISTGGGNTYYRDSVKGRFTISRDNAKNTLYLQMNSLRAEDTAVYYCAEDMSNSGYGLFDYWGQGTLVTVSS VL: DIQMTQSPSSLSASVGDRVTITCKAGQNVDNNIAWYQQKPGQSPKLLIYYASNRNTGVPSRFSGSGYGTDFTLTISSLQPEDFATYYCQRISNSPYTFGQGTKVEIKR | binds | 0.12 | – | – | –
humanized anti-human LAG-3 antibody hLA212_H2/L3 (antibody, human IgG1, kappa, V domains shown, Human IgG1/kappa; also called humanized hLA212_H2/L3) VH: EVQLVESGGGLVQPGGSLRLSCAASGFTYRSYVMAWVRQAPGKGLEWVGSISTGGGNTYYRDSVKGRFTISRDNAKNTLYLQMNSLRAEDTAVYYCAEDMSNSGYGLFDYWGQGTLVTVSS VL: NIQMTQSPSSLSASVGDRVTITCKAGQNVDNNIAWYQKKPGQSPKLLIYYASNRNTGVPDRFSGGGYGTDFTLTISSLQPEDFAFYYCQRISNSPYTFGQGTKVEIKR | binds | 0.15 | – | – | –
humanized anti-human LAG-3 antibody hLA212_H2/L4 (antibody, human IgG1, kappa, V domains shown, Human IgG1/kappa; also called humanized hLA212_H2/L4) VH: EVQLVESGGGLVQPGGSLRLSCAASGFTYRSYVMAWVRQAPGKGLEWVGSISTGGGNTYYRDSVKGRFTISRDNAKNTLYLQMNSLRAEDTAVYYCAEDMSNSGYGLFDYWGQGTLVTVSS VL: DIQMTQSPSSMSISVGDRVTMTCKAGQNVDNNIAWYQKKPGQSPKLLIYYASNRNTGVPSRFSGSGSGTDFTLTISSVQPEDFATYYCQRISNSPYTFGQGTKLELKR | binds | 0.096 | – | – | –
humanized anti-human LAG-3 antibody hLA212_H3/L1 (antibody, human IgG1, kappa, V domains shown, Human IgG1/kappa; also called humanized hLA212_H3/L1) VH: EVQLVESGGGLVQPGGSLRLSCAASGFTYRSYVMAWVRQAPGKGLEWVASISTGGGNTYYRDSVKGRFTISRDNAKNTLYLQMDSLRAEDTAVYYCAEDMSNSGYGLFDYWGQGTLVTVSS VL: DIQMTQSPSSLSASVGDRVTITCKAGQNVDNNIAWYQQKPGQAPKLLIYYASNRNTGVPSRFSGSGSGTDFTLTISSLQPEDFATYYCQRISNSPYTFGQGTKVEIKR | binds | 0.092 | – | – | –
humanized anti-human LAG-3 antibody hLA212_H3/L3 (antibody, human IgG1, kappa, V domains shown, Human IgG1/kappa; also called humanized hLA212_H3/L3) VH: EVQLVESGGGLVQPGGSLRLSCAASGFTYRSYVMAWVRQAPGKGLEWVASISTGGGNTYYRDSVKGRFTISRDNAKNTLYLQMDSLRAEDTAVYYCAEDMSNSGYGLFDYWGQGTLVTVSS VL: NIQMTQSPSSLSASVGDRVTITCKAGQNVDNNIAWYQKKPGQSPKLLIYYASNRNTGVPDRFSGGGYGTDFTLTISSLQPEDFAFYYCQRISNSPYTFGQGTKVEIKR | binds | 0.1 | – | – | –
humanized anti-human LAG-3 antibody hLA212_H3/L4 (antibody, human IgG1, kappa, V domains shown, Human IgG1/kappa; also called humanized hLA212_H3/L4) VH: EVQLVESGGGLVQPGGSLRLSCAASGFTYRSYVMAWVRQAPGKGLEWVASISTGGGNTYYRDSVKGRFTISRDNAKNTLYLQMDSLRAEDTAVYYCAEDMSNSGYGLFDYWGQGTLVTVSS VL: DIQMTQSPSSMSISVGDRVTMTCKAGQNVDNNIAWYQKKPGQSPKLLIYYASNRNTGVPSRFSGSGSGTDFTLTISSVQPEDFATYYCQRISNSPYTFGQGTKLELKR | binds | 0.076 | – | – | –
humanized anti-human LAG-3 antibody hLA212_H3/L5 (antibody, human IgG1, kappa, V domains shown, Human IgG1/kappa; also called humanized hLA212_H3/L5) VH: EVQLVESGGGLVQPGGSLRLSCAASGFTYRSYVMAWVRQAPGKGLEWVASISTGGGNTYYRDSVKGRFTISRDNAKNTLYLQMDSLRAEDTAVYYCAEDMSNSGYGLFDYWGQGTLVTVSS VL: NIQMTQSPSSMSISVGDRVTMTCKAGQNVDNNIAWYQKKPGQSPKLLIYYASNRNTGVPDRFSGGGYGTDFTLTISSVQPEDAAFYYCQRISNSPYTFGQGTKLELKR | binds | 0.1 | – | – | –
humanized anti-human LAG-3 antibody hLA212_H2/L5 (antibody, human IgG1, kappa, V domains shown, Human IgG1/kappa; also called humanized hLA212_H2/L5) VH: EVQLVESGGGLVQPGGSLRLSCAASGFTYRSYVMAWVRQAPGKGLEWVGSISTGGGNTYYRDSVKGRFTISRDNAKNTLYLQMNSLRAEDTAVYYCAEDMSNSGYGLFDYWGQGTLVTVSS VL: NIQMTQSPSSMSISVGDRVTMTCKAGQNVDNNIAWYQKKPGQSPKLLIYYASNRNTGVPDRFSGGGYGTDFTLTISSVQPEDAAFYYCQRISNSPYTFGQGTKLELKR | binds | 0.12 | – | – | –
rat anti-human LAG-3 monoclonal antibody rLA204 (antibody, V domains shown, the rat constant regions are not) VH: EVELVESGGGLVQPGRSMKLSCAASGFTFRTYGMAWVRQAPTKGLEWVASISTGGGSTYYRDSVKGRFTISRDNAKSTLYLQMDSLRSEDTATYYCTTDLINYPGIGGFAFWGQGTLVTVSS VL: NIVMTQSPKSMSISVGDRVTMNCKASQNVYNNIAWYQQKPGKSPKLLIYYASNRYTGVPDRFTGSGSGTDFTLTIHSVQAEDAAFYYCQRLYNSPPTFGGGTKLELKR | – | – | binds | binds | no binding (tested: 10 µg/mL)
human chimeric anti-LAG-3 antibody cLA212 (antibody, human IgG1, V domains shown, Human IgG1/kappa chimera; The C-terminal ends 470 and 234 are inferred from the humanized chains, which differ from cLA212 by substitutions only; also called rLA212 human chimeric antibody) VH: EVQLVESGGGLVQPGRSLKLSCAASGFTYRSYVMAWVRQAPTRGLEWVASISTGGGNTYYRDSVKGRFTISRDNAKNTLYLQMDSLRSEDTATYYCAEDMSNSGYGLFDYWGQGVMVTVSS VL: NIVMTQSPKSMSISVGDRVTMNCKAGQNVDNNIAWYQKKPGQSPKLLIYYASNRNTGVPDRFTGGGYGTDFTLTINSVQAEDAAFYYCQRISNSPYTFGAGTELELKR | binds | – | – | – | –
